Substrate: O=C(O)CO
Assay: purified protein
Conditions: 2 mM FMN, 5 mM MgSO4, 0.5 mM EDTA, 3 mM phenylhydrazine; measured in parallel with RcGOX

B1: AtGOX1 (Arabidopsis thaliana) (protein)
chain: MEITNVTEYDAIAKQKLPKMVYDYYASGAEDQWTLQENRNAFARILFRPRILIDVSKIDMTTTVLGFKISMPIMVAPTAMQKMAHPDGEYATARAASAAGTIMTLSSWATSSVEEVASTGPGIRFFQLYVYKNRNVVEQLVRRAERAGFKAIALTVDTPRLGRRESDIKNRFTLPPNLTLKNFEGLDLGKMDEANDSGLASYVAGQIDRTLSWKDVQWLQTITKLPILVKGVLTGEDARIAIQAGAAGIIVSNHGARQLDYVPATISALEEVVKATQGRIPVFLDGGVRRGTDVFKALALGASGIFIGRPVVFSLAAEGEAGVRKVLQMLRDEFELTMALSGCRSLKEISRNHITTEWDTPRPSARL
Km: 390 ± 100 µM
kcat: 1.04 ± 0.237 s⁻¹

— PMC7655567
